Test results as given in patent publication US11311577B2, “Coordinating gene expression using RNA destabilizing elements” (Chimera Bioengineering, Inc., priority 2018, dated 2022).

Tested on: T-cells
Experiment: Removal of microRNA binding sites from an RDE: expression from constructs, GFP in T-cells
Assay type: cell-based
Conditions: MIR186 micro-RNA sites removed from the 3′-UTR of IL-2
From the text: The AU-rich element from the 3′-UTR of IL-2 has mir-181 and mir 186 microRNA binding sites. Different combinations of the microRNA sites were removed from the 3′-UTR of IL-2. When the MIR186 micro-RNA sites were removed from the 3′-UTR of IL-2 the dynamic range of expression from constructs with this UTR increased 50 fold. The modified IL-2, 3′-UTR replaces CTT in the sequence with GAA and is shown below (the new GAA is underlined in the sequence):
Different combinations of the micro-RNA sites were removed from the 3′UTR of IFNg and tested for increased expression. When the mir125 micro-RNA sites were removed from the 3′-UTR of IFN-γ the expression rate from constructs with this UTR is increased.
Expression of GFP in T-cells, transfected with the RDE-GFP plus the microRNA sites, is compared to expression of GFP in T-cells with the RDE-GFP in which the microRNA sites have been removed, following activation with CD3/CD28 beads for 24 hours. The removal of the microRNA sites increased expression of the GFP by a factor of between 2-5 after 24 hours, relative to the cells with microRNA sites.

B1: modified IL-2, 3′-UTR: IL-2 3′-UTR with MIR186 micro-RNA sites removed, CTT replaced with GAA (SEQ ID NO: 22) (nucleic acid, listed as Homo sapiens)
DNA: TAATTAAGTGCTTCCCACTTAAAACATATCAGGCCTTCTATTTATTTAAATATTTAAATTTTATATTTATTGTTGAATGTATGGTTTGCTACCTATTGTAACTATTATTCTTAATCTTAAAACTATAAATATGGATCTTTTATGATTGAATTTGTAAGCCCTAGGGGCTCTAAAATGGTTTCACTTATTTATCCCAAAATATTTATTATTATGTTGAATGTTAAATATAGTATCTATGTAGATTGGTTAGTAAAACTATTTAATAAATTTGATAAATATAAA
Which “increase of dynamic range of expression” value does the source give for B1 here?
The value was 50 fold.
